These results are taken from publication PMC6222095.

In assay [1] the target is complement factor H, double homozygous His-402/Val-62 allotype (human) (UniProt P08603). As to the kind of experiment: SAXS; concentration dependence of Guinier I(0)/c at 0.4-3.3 mg/ml in HEPES buffer, two samples of each allotype; KD estimated assuming a monomer-dimer equilibrium (dimer to monomers).
For assay [2] the target is unchanged. The assay is described as follows: AUC; sedimentation velocity, 20 °C, 50,000 and 60,000 rpm, HEPES buffer (10 mM HEPES, 137 mM NaCl, pH 7.4), five samples of each allotype at 0.5, 1.1 and 2.1 mg/ml; c(s) peak integration; dimer and trimer percentages at 1.1 mg/ml.
The target is the same in assay [3]. The assay is described as follows: SPR; Biacore X100, 800 RU of full-length FH amine-coupled to a CM3 chip, FH allotypes flowed at 1.3-12.3 μM, 25 °C, HEPES buffer; estimated KD from steady-state 1:1 affinity fit of maximum responses; sensorgrams did not fit a 1:1 kinetic model.
Assay [4] shares this target. As to the kind of experiment: native MS; Q-ToF nanoflow, FH at about 4 mg/ml (3.9 mg/ml, 25.3 μM) in 140 mM ammonium acetate, pH 7.0; peak integration.
The target is the same in assay [5]. As to the kind of experiment: native MS; Q-ToF nanoflow, FH at about 4 mg/ml (4.4 or 3.6 mg/ml) in 1 M ammonium acetate, pH 7.0; peak integration.
Assay [6] has as its target complement factor H, homozygous Tyr-402, homozygous or heterozygous at I62V (human) (UniProt P08603). As to the kind of experiment: SAXS; concentration dependence of Guinier I(0)/c at 0.4-3.3 mg/ml in HEPES buffer, two samples of each allotype; KD estimated assuming a monomer-dimer equilibrium (dimer to monomers).
Assay [7] has the same target. The assay is described as follows: AUC; sedimentation velocity, 20 °C, 50,000 and 60,000 rpm, HEPES buffer (10 mM HEPES, 137 mM NaCl, pH 7.4), five samples of each allotype at 0.5, 1.1 and 2.1 mg/ml; c(s) peak integration; dimer and trimer percentages at 1.1 mg/ml.
For assay [8], the target named is complement factor H, homozygous Tyr-402/Val-62 allotype (human) (UniProt P08603). As to the kind of experiment: SPR; Biacore X100, 800 RU of full-length FH amine-coupled to a CM3 chip, FH allotypes flowed at 1.3-12.3 μM, 25 °C, HEPES buffer; estimated KD from steady-state 1:1 affinity fit of maximum responses; sensorgrams did not fit a 1:1 kinetic model.
Assay [9] shares this target. As to the kind of experiment: native MS; Q-ToF nanoflow, FH at about 4 mg/ml (3.9 mg/ml, 25.3 μM) in 140 mM ammonium acetate, pH 7.0; peak integration.
Assay [10] shares this target. The assay is described as follows: native MS; Q-ToF nanoflow, FH at about 4 mg/ml (4.4 or 3.6 mg/ml) in 1 M ammonium acetate, pH 7.0; peak integration.
For assay [11], the target named is recombinant FH SCR-6/8 Tyr-402 (human). The assay is described as follows: SPR; Biacore X100, 150 RU (His-402 also 400 RU) of SCR-6/8 amine-coupled to a CM4 chip, SCR-6/8 allotypes flowed at 5-40 μM, 25 °C, HEPES buffer with 0.3 mg/ml nonspecific binding reducer; steady-state fits.
Assay [12] has as its target recombinant FH SCR-6/8 His-402 (human). The assay is described as above.

pKd: −log10 of the molar value. Where “and” joins values, the source holds several entries; their conditions need not be identical. Equal entries are not always repeated.

For the substance “complement factor H, double homozygous His-402/Val-62 allotype (from UniProt P08603 19-1231) (natural protein)”, the pKd in [1] was 4.96 and 4.66. Also, in assay [2], the percent dimer stood at 5.7%, the percent oligomers (peaks 2-9) worked out at 12.8%, the percent trimer came to 2.5% and the stoichiometry N was below 9. Also, the pKd in [3] is 5.17. In assay [4], this substance displayed a percent dimer of 17%, a percent trimer of 6% and a stoichiometry N below 3. In assay [5], the percent dimer stood at 2% and the stoichiometry N turned out to be 2.
With “complement factor H, homozygous Tyr-402, homozygous or heterozygous at I62V (from UniProt P08603 19-1231) (natural protein)”, the pKd in [6] was 4.80 and 4.74. Besides, in assay [7], the percent dimer was found to be 4%, the percent oligomers (peaks 2-9) was 11.7%, the percent trimer turned out to be 2.1% and the stoichiometry N is below 9.
For the substance “complement factor H, homozygous Tyr-402/Val-62 allotype (from UniProt P08603 19-1231) (natural protein)”, in assay [8], the pKd was 5.10. Also, in assay [9], the percent dimer worked out at 24%, the percent trimer was found to be 4% and the stoichiometry N is below 3. In [10], this substance displayed a percent dimer of 10% and a stoichiometry N of 2.
Turning to “recombinant FH SCR-6/8 His-402 (domain or fragment)”, the pKd in [11] and in [12] was below 4.40 in each case.
In the case of “recombinant FH SCR-6/8 Tyr-402 (domain or fragment)”, the pKd in [11] and in assay [12] was below 4.40 each time.

Broadly, the pKd is the Kd on a negative log10 scale, so that one unit is a factor of ten. For orientation: stoichiometry N means the number of molecules, sites or subunits per partner or assembly.
